In the assay the target is PD-L1 (UniProt Q9NZQ7 19-238, limits assumed). In words: cell-based or functional assay.

Positions count from the first letter of the chain named.

Sequence of PD-L1 (Q9NZQ7 19-238 limits assumed): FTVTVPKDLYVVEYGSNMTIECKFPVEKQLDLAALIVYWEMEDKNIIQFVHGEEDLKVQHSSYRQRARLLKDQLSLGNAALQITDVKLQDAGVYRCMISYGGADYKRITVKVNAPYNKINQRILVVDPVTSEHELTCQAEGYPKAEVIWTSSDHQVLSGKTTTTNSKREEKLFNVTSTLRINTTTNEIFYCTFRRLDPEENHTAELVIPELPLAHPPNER

B1: BH2-B11 全抗体 (full antibody, human IgG1/kappa) (antibody, V domains shown)
VH: EVQLVESGGGLVQPGGSLRLSCAASGLTWSDSYKHWVRQAPGKGLEWVHWNSTYGGSTYYADSVKGRFTISADTSKNTAYLQMNSLRAEDTAVYYCARRHFASTWDYWGQGTLVTVSS
VL: DIQMTQSPSSLSASVGDRVTITCRASQNIHNSLAWYQQKPGKAPKLLIYGASSLESGVPSRFSGSGSGTDFTLTISSLQPEDFATYYCQQERRVPWTFGQGTKVEIKR
B1: the “EC50, CD4+ T细胞增殖 (混合淋巴细胞反应 MLR, cck8)” value stood at 6.73 ng/mL.

B2: AH10-E3 全抗体 (full antibody, human IgG1/kappa) (antibody, V domains shown)
VH: EVQLVESGGGLVQPGGSLRLSCAASGWTLSDSLQHWVRQAPGKGLEWVGFQSAYGGSTYYADSVKGRFTISADTSKNTAYLQMNSLRAEDTAVYYCARRHYYTAWDYWGQGTLVTVSS
VL: B1 VL with N28S, S32Y, G50S, S53N, E55P, E91G, R92L, R93H, V94T, W96P
For the molecule B2, the “EC50, CD4+ T细胞增殖 (混合淋巴细胞反应 MLR, cck8)” value worked out at 11.4 ng/mL.

B3: AC9-E3 全抗体 (full antibody, human IgG1/kappa) (antibody, V domains shown)
VH: B1 VH with L27C, Y33W, K34D, H49D, W50Y, N51E, F101W, A102N, S103A, W105F
VL: B1 VL with N28S, S32Y, G50S, S53N, E55P, E91G, R92L, R93H, V94T, W96P
With B3, the “EC50, CD4+ T细胞增殖 (混合淋巴细胞反应 MLR, cck8)” value was 11.9 ng/mL.

B4: AC9-B11 全抗体 (full antibody, human IgG1/kappa) (antibody, V domains shown)
VH: B1 VH with L27C, Y33W, K34D, H49D, W50Y, N51E, F101W, A102N, S103A, W105F
VL: B1 VL
In the case of B4, the “EC50, CD4+ T细胞增殖 (混合淋巴细胞反应 MLR, cck8)” value is 7.58 ng/mL.

B5: AH10-B11 全抗体 (full antibody, human IgG1/kappa) (antibody, V domains shown)
VH: B2 VH
VL: B1 VL
Regarding B5, the “EC50, CD4+ T细胞增殖 (混合淋巴细胞反应 MLR, cck8)” value was 9.88 ng/mL.

B6: BH2-E3 全抗体 (full antibody, human IgG1/kappa) (antibody, V domains shown)
VH: B1 VH
VL: B1 VL with N28S, S32Y, G50S, S53N, E55P, E91G, R92L, R93H, V94T, W96P
Turning to B6, the “EC50, CD4+ T细胞增殖 (混合淋巴细胞反应 MLR, cck8)” value came to 7.71 ng/mL.

For the origin of these results see CN110964111A (BEIJING DONGFANG BIOTECH CO LTD, dated 2020).
